# Experimental data as given in patent US20200207841A1 (MIT, published 2020).
# Read-outs that look alike come from different tables or passages of the source.
# B1: 4E11 WT (antibody, V domains shown)
# VH: VKLLEQSGAELVKPGASVRLSCTASGFNIKDTYMSWVKQRPEQGLEWIGRIDPANGDTKYDPKFQGKATITADTSSNTAYLHLSSLTSGDTAVYYCSRGWEGFAYWGQGTLVTVSA
# VL: ELVMTQTPASLAVSLGQRATISCRASENVDRYGNSFMHWYQQKAGQPPKLLIYRASNLESGIPARFSGSGSRTDFTLTINPVEADDVATYFCQRSNEVPWTFGGGTKLEIKR
# notes: also called wt 4E11; mAb 4E11
# Columns and labels:
# EDIII-DV2 [1] = biological target: T1, EDIII-DV2 (Dengue virus serotype 2 (DV2), UniProt P14337 581-673)
# T1 construct: also called EDIII of DV2; EDIII-DVII
# EDIII-DV3 [2] = biological target: T2, EDIII-DV3 (Dengue virus serotype 3 (DV3), UniProt Q6YMS3 579-671)
# T2 construct: also called EDIII of DV3; EDIII-DVIII
# EDIII-DV1 [3] = biological target: T3, EDIII-DV1 (Dengue virus serotype 1 (DV1), UniProt P17763 581-673)
# T3 construct: also called EDIII of DV1; EDIII-DVI
# EDIII-DV2 [4] = biological target: T1, EDIII-DV2; experiment: SPR
# EDIII-DV3 [5] = biological target: T2, EDIII-DV3; experiment: SPR
# EDIII-DV1 [6] = biological target: T3, EDIII-DV1; experiment: SPR
# EDIII-DV2 [7] = biological target: T1, EDIII-DV2; experiment: SPR; remark: listed apart in the source
# EDIII-DV3 [8] = biological target: T2, EDIII-DV3; experiment: SPR; remark: listed apart in the source
# EDIII-DV1 [9] = biological target: T3, EDIII-DV1; experiment: SPR; remark: listed apart in the source
# [10] = biological target: DV3 (Dengue virus serotype 3, virus used in FRNT) (Dengue virus serotype 3 (DV3)); experiment: cell-based or functional assay
# [11] = biological target: DV1 (Dengue virus serotype 1, virus used in FRNT) (Dengue virus serotype 1 (DV1)); experiment: cell-based or functional assay
# [12] = biological target: DV2 (Dengue virus serotype 2, virus used in FRNT) (Dengue virus serotype 2 (DV2)); experiment: cell-based or functional assay
# EDIII-DV2 [13] = biological target: T1, EDIII-DV2; experiment: competition ELISA
# EDIII-DV3 [14] = biological target: T2, EDIII-DV3; experiment: competition ELISA
# EDIII-DV1 [15] = biological target: T3, EDIII-DV1; experiment: competition ELISA
binder,measurement,setting,value
B1,Kd,EDIII-DV2 [1],5.2 nM
same,Kd,EDIII-DV3 [2],21.8 nM
same,Kd,EDIII-DV1 [3],0.328 nM
same,kon,EDIII-DV2 [4],1.98e+06 M⁻¹ s⁻¹
same,koff,EDIII-DV3 [5],0.0102 s⁻¹
same,kon,EDIII-DV3 [5],1.34e+06 M⁻¹ s⁻¹
same,koff,EDIII-DV1 [6],0.000551 s⁻¹
same,kon,EDIII-DV1 [6],1.11e+06 M⁻¹ s⁻¹
same,Kd,EDIII-DV2 [7],6.2 nM
same,Kd,EDIII-DV3 [8],7.58 nM
same,Kd,EDIII-DV1 [9],0.5 nM
same,"IC50 (read off the curve): neutralisation, relative infectivity against [4E11]",[10],~0.5 mg/L
same,"IC50 (read off the curve): neutralisation, relative infectivity against [4E11]",[11],~0.06 mg/L
same,"IC50 (read off the curve): neutralisation, relative infectivity against [4E11]",[12],~0.03 mg/L
same,Kd,EDIII-DV2 [13],5.2 nM
same,Kd,EDIII-DV3 [14],21.8 nM
same,Kd,EDIII-DV1 [15],0.328 nM
